Literature values as cited in PMC9477365.

How the values were obtained:
[1] = target: fibrin (E domain site) E domain (Homo sapiens) (UniProt P02671)
[2] = target: fibrin (gamma' site) gamma' chain (Homo sapiens) (UniProt P02671)

Kd [1]: 2800 nM
Kd [2]: 9 µM
Substance: thrombin (from UniProt P00734)
